Data from the supplement of paper PMC12764529.
± gives the half width of the 95% confidence interval.

How the values were obtained:
[1] = folding stability dG unfold from trypsin proteolysis; higher = more stable
How it was run: (§1)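 Mini-proteins designed to be under 80 residues and free of cysteine were carried in a PA-tagged cDNA display construct and digested with trypsin and with chymotrypsin. Each protease was applied at 11 threefold-diluted concentrations, alongside a no-protease condition, before sequencing. K50 came from Bayesian fitting of the sequencing counts, and unfolding free energy was obtained by comparing it with a sequence-predicted unfolded-state K50 and a shared folded-state K50, for each protease separately or for both together. Designs were retained only if their AlphaFold2 dimer inter-PAE exceeded 15.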

[2] = folding stability dG unfold (combined trypsin and chymotrypsin); higher = more stable
How it was run: as §1

[3] = folding stability dG unfold from chymotrypsin proteolysis; higher = more stable
How it was run: as §1

Sequence | folding stability dG unfold [1] | folding stability dG unfold [2] | folding stability dG unfold [3]
SAGGMVIVVKTPGGATSITLGNLTITQDPSTGVAVAEATPEQVEALKKDPALKDIESIEILPEEELKSAGGS [r8_493_JUSTAS] | 0.307 ± 0.024 kcal/mol | 0.458 ± 0.14 kcal/mol | 0.648 ± 0.056 kcal/mol
SAGGMVKLFTWPPGQPEEFAEKLRKLPDVVEVTIEEVDGALRIRIKLKGKDVEVTTDPAGRWSVTVVGSAGG [r13_907_JUSTAS] | 2.15 ± 0.034 kcal/mol | 2.28 ± 0.048 kcal/mol | 2.35 ± 0.028 kcal/mol
SAGGMVKTITKPMPLEELEKVYEEAKEAIEAGYEVIFTYPLPDGTTITIKTDYETKKIVEIKTSKPVSSAGG [r13_873_JUSTAS] | -0.345 ± 0.67 kcal/mol | 0.687 ± 0.28 kcal/mol | 1.09 ± 0.059 kcal/mol
SAGGMVLEVEFTGPLSEVEAFIEELKAKPGVELLSVEIEVKPLPGPPVRYRVKLEVKIYDPENPVLLSAGGS [r8_374_JUSTAS] | 2.26 ± 0.22 kcal/mol | 2.74 ± 0.37 kcal/mol | 3.07 ± 0.077 kcal/mol
SAGGMVLVIVSDLKPGELNEIIEKLKKEGLEVKLFLPNGEEIDADPNIEDLPEDVPVVLLVRHPDKSSAGGS [r16_31_TrMRF] | 1.87 ± 0.079 kcal/mol | 2.35 ± 0.053 kcal/mol | 2.494 ± 0.017 kcal/mol
SAGGMVLVRIRVDMSPEERKRLEEELRKRVTEVRYLPEDEDVVEVRVSPEALAELPEERITEVELLPSAGGS [r16_328_TrROS_Hall] | 0.217 ± 0.15 kcal/mol | -0.0298 ± 0.097 kcal/mol | -0.654 ± 0.32 kcal/mol
SAGGMVRITRDEDGILRVELFVEGTPEEAEEEAARLVRLLEELGFEEVRVEREPFGDGVVVTIEAKASAGGS [r8_113_TrMRF] | 2.55 ± 0.11 kcal/mol | 2.74 ± 0.076 kcal/mol | 2.86 ± 0.083 kcal/mol
SAGGMVRVTVVPTPGRAGEPVTLVIEHPDGTRTVPLPPDTSPEEARAAAERLAEEEGLDVAEVVFEASAGGS [r16_753_JUSTAS] | 0.243 ± 0.07 kcal/mol | 0.376 ± 0.098 kcal/mol | 0.428 ± 0.086 kcal/mol
SAGGMVTIELREVSEEEALKLAEELPPNTLLIPFPFGNLVLPVRVPDDPEVREKVAEEIRKFLEALPSAGGS [r16_311_TrMRF] | 1.13 ± 0.023 kcal/mol | 0.67 ± 0.13 kcal/mol | 0.0455 ± 0.19 kcal/mol
SAGGMVTITVSIEEGKGYAVITITIDDETLTIKIPIPNMTEEDIKAKAEEIAKELAEKYGIEEIKLESAGGS [r16_249_JUSTAS] | 3.08 ± 0.16 kcal/mol | 3.34 ± 0.32 kcal/mol | 3.37 ± 0.13 kcal/mol
SAGGMVTLTLPSPDGSTLTVTVEKDPNADYYRATVTTHHPDGTVTVTESVIHPDGTTTTLATTTLPASAGGS [r16_213_JUSTAS] | 2.11 ± 0.08 kcal/mol | 2.23 ± 0.12 kcal/mol | 2.22 ± 0.04 kcal/mol
SAGGMVTLTYTDLVEEDPEVKAAKARELAEELREKGYTVTDATFDPEAGTLTITVSADDATLEEIAASAGGS [r8_344_TrMRF] | 1.26 ± 0.071 kcal/mol | 1.27 ± 0.099 kcal/mol | 1.1 ± 0.065 kcal/mol
SAGGMVTVTDPNGVKHEYKLKVKITFEKPDGKPVTVEIEFDNVTVEDIVKIAKEIESKGYKLVSIEISSAGG [r13_227_TrMRF] | 3.73 ± 0.34 kcal/mol | 4.74 ± 0.22 kcal/mol | 4.91 ± 0.15 kcal/mol
SAGGMVYRVKVKITFPDGKTYYIPFPNFKSFEEILNVLKKLGFENLENIPIEVIEIEPIPEVPEELLKSAGG [r13_493_TrMRF] | 1.53 ± 0.066 kcal/mol | 2.74 ± 0.16 kcal/mol | 3.07 ± 0.11 kcal/mol
SAGGMYEIVDLLSVEPDPETGALTRTFLLRDPDSDRFLVAEVRIDPENPDRVEIRLYDEDGNLIAEFPSAGG [r13_658_TrMRF] | 3.36 ± 0.083 kcal/mol | 3.93 ± 0.045 kcal/mol | 4.148 ± 0.034 kcal/mol
SAGGMYILELTFTTPTSTTPRTVEVPPGNYEEAAKALREELAAEAGAADLEVTFTVYKVAPDGTLVEESAGG [r13_877_JUSTAS] | 1.16 ± 0.049 kcal/mol | 2 ± 0.19 kcal/mol | 2.51 ± 0.097 kcal/mol
SAGGMYKARIEVKNPEEVKKKIKELGLEFEIETRPDGSVDIYFPPEYVDKLIKAFPGEKIEIEPIPDESAGG [r13_261_TrMRF] | 2.94 ± 0.15 kcal/mol | 3.29 ± 0.14 kcal/mol | 3.38 ± 0.11 kcal/mol
SAGGMYKVKIYFEDTKEEIEIEASAEEVLEAIKNGDLDALKKLFPGAKIVKIEVEKVEPEPEEEEEEESAGG [r13_629_TrROS_Hall] | 3.33 ± 0.27 kcal/mol | 3.44 ± 0.29 kcal/mol | 3.48 ± 0.23 kcal/mol

Sequence | folding stability dG unfold [1] | folding stability dG unfold [2] | folding stability dG unfold [3]
SAGGMYLVKIKVKIDSPTSEKERDLYILAEPDTDVEEIVKKIPGAKNIEIEVEIIPPSENPEIASNPLSAGG [r19_339_JUSTAS] | 0.645 ± 0.12 kcal/mol | 0.684 ± 0.25 kcal/mol | 0.7 ± 0.15 kcal/mol
SAGGMYVEVVIDNPDPDISPEELAEEVARELAPDPFEIKPVKIEPELIGGIPKVTILFEVDDPEAVEESAGG [r13_979_TrMRF] | 0.238 ± 0.049 kcal/mol | 0.763 ± 0.056 kcal/mol | 0.958 ± 0.019 kcal/mol
SAGGNAKEIASYLADWFQERFPPNMKVKVSVTVTPDGIVVRIRMPGGWQFEITIKDGKLQEIEWTPYSAGGS [r8_287_TrROS] | 2.72 ± 0.07 kcal/mol | 2.79 ± 0.067 kcal/mol | 2.874 ± 0.026 kcal/mol
SAGGNGRKKVKIDISIMIPIPPNDMPPEQRMKLAKELAERIARSLARKEGADPDKIDEVKVRFHIFPWSAGG [r13_5_TrROS] | 2.03 ± 0.027 kcal/mol | 2.44 ± 0.072 kcal/mol | 2.65 ± 0.067 kcal/mol
SAGGNKATLTVSEDNYPVLLLELYAPDGELIATAPVLLDPEKGGLTAADLERLLKEIDVPPDVEVNIASAGG [r13_479_TrMRF] | 1.21 ± 0.096 kcal/mol | 1.32 ± 0.091 kcal/mol | 1.36 ± 0.037 kcal/mol
SAGGNKNGKPKPTVPFKIMVMKPKPRRNDNNGQEEPRYDMRPVEIEFPLGEEIDLEEALENPDYIFIMSAGG [r13_753_TrROS] | -0.0176 ± 0.14 kcal/mol | 0.199 ± 0.15 kcal/mol | 0.276 ± 0.18 kcal/mol
SAGGNLFIRIKIEHDGGPITHWFPIKDAEQAKDNIKEFFDQQGLPVKIKEIEVFPEEGFIPVEWRVPPSAGG [r13_567_TrROS] | 0.101 ± 0.12 kcal/mol | 0.348 ± 0.11 kcal/mol | 0.485 ± 0.12 kcal/mol
SAGGNLMIRVELYRPKPDPEGEWQKREVTLPMPPGEPIEELIDELRPPGWVIEIDIFDNGKPIREYYIRSAG [r5_278_TrROS] | 1.76 ± 0.12 kcal/mol | 2.34 ± 0.35 kcal/mol | 2.86 ± 0.14 kcal/mol
SAGGNMFMIKIDDPDALKELANEPGISSVHYNPNNGRYTVMFNFPDGMRTFEIDAEDGKIKEIEPFPSAGGS [r8_251_TrROS] | 1.58 ± 0.034 kcal/mol | 1.79 ± 0.039 kcal/mol | 1.82 ± 0.037 kcal/mol
SAGGNMWMVRVKIDDGKTFMITSPEDIEEYLKKKLGPNYKIKEVEWHRMPPPNGPPMPMHEFEIEVPSAGGS [r16_408_TrROS] | 1.28 ± 0.062 kcal/mol | 1.76 ± 0.16 kcal/mol | 2.02 ± 0.1 kcal/mol
SAGGNRIMFIVNSPEEAERFANFIRKHLPPGMNLEIEIEPFPLKDNVPPDDPDYKNQPVYMVHITIPSAGGS [r16_795_TrROS] | 3 ± 0.096 kcal/mol | 3.73 ± 0.2 kcal/mol | 4.13 ± 0.12 kcal/mol
SAGGNRKFTLIIRIKAPPGDPDKMKEEVKEIANEIADIFRDHGVKVKVKVEYDPDNGEIYVQVEFEVPSAGG [r13_755_TrROS] | 3.89 ± 0.29 kcal/mol | 4.78 ± 0.29 kcal/mol | 5.12 ± 0.31 kcal/mol
SAGGNTIMIPMDPPQAREFAKNFIGEFLDQAEENPDRPIEIMVPGPEGRYITIRVDPKEGNLEIEVVPSAGG [r13_216_TrROS] | 0.231 ± 0.057 kcal/mol | 0.125 ± 0.089 kcal/mol | -0.125 ± 0.17 kcal/mol
SAGGPATLTFEFPAEDGSRVRVEVTVEEVPFVDPRTGEPVAPFLKVHVKVTVFDEDGEAHEAEFELLSAGGS [r8_474_TrMRF] | 2.22 ± 0.043 kcal/mol | 3.73 ± 0.12 kcal/mol | 4.21 ± 0.075 kcal/mol
SAGGPDELELVIVFPAEALGTGEGGEPYTAEDIAEAIKKELPKDEVEVEIAEIDEETGEIVVTVKVPSAGGS [r16_284_TrMRF] | 0.747 ± 0.13 kcal/mol | 0.748 ± 0.23 kcal/mol | 0.449 ± 0.077 kcal/mol
SAGGPEVFVFRDPLTGTWSLAVYDPSTGLWTVTYPDGTVALYRRSGDSWELVEARPVPPAPVDPDLASAGGS [r16_687_TrMRF] | 3.34 ± 0.12 kcal/mol | 3.54 ± 0.065 kcal/mol | 3.714 ± 0.014 kcal/mol
SAGGPGAAPTSTTVTVTIHLPMPPDVSDEEAKALAKERIKEEFPPSYTIESITVDPATNVVTATVKVASAGG [r19_81_JUSTAS] | 3.32 ± 0.15 kcal/mol | 3.11 ± 0.16 kcal/mol | 2.88 ± 0.1 kcal/mol
SAGGPGFQRYPYTLELPDGRKITVEYWRMGDNPYVQIDIRHDGEPLGTIHVPVPSPDQIEDAAKDIISAGGS [r16_55_TrROS] | 1.18 ± 0.057 kcal/mol | 1.58 ± 0.072 kcal/mol | 1.78 ± 0.054 kcal/mol
